In PMC2700392 (The Journal of Cell Biology, 2009):

Target: Nup170p (recombinant, released from GST by thrombin) (S. cerevisiae, UniProt P38181 1-1502)
Experiment: pull-down

Nup170p (recombinant, released from GST by thrombin), sequence (P38181 whole entry): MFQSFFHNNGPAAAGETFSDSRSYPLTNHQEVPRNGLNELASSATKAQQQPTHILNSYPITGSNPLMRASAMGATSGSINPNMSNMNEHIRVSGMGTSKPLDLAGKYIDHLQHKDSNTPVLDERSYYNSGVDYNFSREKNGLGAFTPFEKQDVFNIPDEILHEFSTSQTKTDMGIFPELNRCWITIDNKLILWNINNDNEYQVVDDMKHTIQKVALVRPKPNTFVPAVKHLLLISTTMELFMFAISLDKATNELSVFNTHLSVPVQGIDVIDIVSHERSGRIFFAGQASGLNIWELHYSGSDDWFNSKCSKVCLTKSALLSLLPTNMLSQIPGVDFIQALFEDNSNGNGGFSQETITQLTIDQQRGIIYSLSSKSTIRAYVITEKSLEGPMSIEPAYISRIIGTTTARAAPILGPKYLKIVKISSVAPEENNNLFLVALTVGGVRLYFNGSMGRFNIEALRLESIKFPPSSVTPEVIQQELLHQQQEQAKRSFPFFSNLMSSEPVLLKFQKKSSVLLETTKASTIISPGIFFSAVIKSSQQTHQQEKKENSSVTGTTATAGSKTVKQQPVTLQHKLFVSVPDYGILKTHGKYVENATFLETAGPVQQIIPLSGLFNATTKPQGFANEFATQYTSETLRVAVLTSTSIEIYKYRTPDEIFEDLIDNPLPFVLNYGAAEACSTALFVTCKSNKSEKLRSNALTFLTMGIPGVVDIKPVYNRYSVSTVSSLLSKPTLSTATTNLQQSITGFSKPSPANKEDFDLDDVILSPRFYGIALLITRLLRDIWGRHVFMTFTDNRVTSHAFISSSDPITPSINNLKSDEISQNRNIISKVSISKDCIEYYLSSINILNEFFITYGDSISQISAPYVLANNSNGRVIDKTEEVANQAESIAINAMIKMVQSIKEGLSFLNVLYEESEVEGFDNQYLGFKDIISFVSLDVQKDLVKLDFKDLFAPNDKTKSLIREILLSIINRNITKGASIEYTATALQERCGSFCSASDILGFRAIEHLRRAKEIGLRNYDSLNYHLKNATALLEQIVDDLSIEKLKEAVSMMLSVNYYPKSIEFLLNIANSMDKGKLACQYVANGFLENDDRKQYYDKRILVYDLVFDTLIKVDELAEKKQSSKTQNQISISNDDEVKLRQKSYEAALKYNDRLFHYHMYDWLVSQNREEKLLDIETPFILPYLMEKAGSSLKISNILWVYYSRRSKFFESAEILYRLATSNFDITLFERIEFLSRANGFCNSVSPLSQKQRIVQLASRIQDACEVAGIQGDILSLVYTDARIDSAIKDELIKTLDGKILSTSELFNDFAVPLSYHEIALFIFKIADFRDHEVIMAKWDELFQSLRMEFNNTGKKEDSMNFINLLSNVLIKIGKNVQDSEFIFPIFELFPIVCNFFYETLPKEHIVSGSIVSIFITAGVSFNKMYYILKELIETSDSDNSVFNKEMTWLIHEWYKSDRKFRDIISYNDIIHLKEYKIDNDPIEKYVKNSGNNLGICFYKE

B1: GST-Pom152p^1-111 (domain or fragment, S. cerevisiae, UniProt P39685 1-111, looked up)
chain: MEHRYNVFNDTPRGNHWMGSSVSGSPRPSYSSRPNVNTTRRFQYSDDEPAEKIRPLRSRSFKSTESNISDEKSRISERDSKDRYINGDKKVDIYSLPLISTDVLEISKQRT
  binding result: binds
